# Source: the RNAGym collection of RNA variant scans (doi:10.1093/molbev/msab373)
# B1: Azoarcus group I ribozyme (parent)
# chain: GUGCCUUGCGCCGGGAAACCACGCAAGGGAUGGUGUCAAAUUCGGCGAAACCUAAGCGCCCGCCCGGGCGUAUGGCAACGCCGAGCCAAGCUUCGGCGCCUGCGCCGAUGAAGGUGUAGAGACUAGACGGCACCCACCUAAGGCAAACGCUAUGGUGAAGGCAUAGUCCAGGGAGUGGCGAAAGUCACACAAACCGG
# Variants of: B1
# Test: reverse-splicing fitness (ratio to wild type); higher = more active; in vitro selection; Mg2+ level not given
# How it was run: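 An in vitro group I ribozyme library with randomized positions was T7-transcribed and gel-purified. In triplicate, 10 pmol RNA in EPPS pH 7.5 was reacted with 50 pmoles of a 30-nt RNA substrate for 1 h at 37 °C across several added MgCl2 levels (1–48 mM), then stopped with EDTA. Products were reverse transcribed from a substrate-complementary primer, PCR-amplified and sequenced (HiSeq 4000). Fitness is a variant's read proportion after selection over that before, normalised to wild type.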
row,Variant,reverse-splicing fitness
1,C82U A111U C150G U176A,0.00833
2,C82U A111U C150G U176C,0.0152
3,C82U A111U C150G U176G,0.00369
4,C82U A120C A145U C150A U176G,0.00478
5,C82U A120C A145U C150A U176C,0.0137
6,C82U A120C A145U C150A U176A,0.0114
7,C82U A111U C150G C169U U176C,0.0106
8,C82U A111U C150G C169U U176G,0.00604
9,C82U A111U C150G C169U U176A,0.00687
10,C82U A120C A145G C150U C169G U176G,0.00466
11,C82U A120C A145G C150U C169G U176C,0.0155
12,C82U A120C A145G C150U C169G U176A,0.0128
13,C82U A120C A145G C150U C169U U176A,0.0165
14,C82U A120C A145G C150U C169U U176G,0.00416
15,C82U A120C A145G C150U C169U U176C,0.0169
16,C82U A120C A145C C169A U176C,0.00368
17,C82U A120C A145C C169A U176G,0.00299
18,C82U A120C A145C C169A U176A,0.00575
19,C82U A111U U176C,0.173
20,C82U A111U U176A,0.107
21,C82U A111U U176G,0.0233

row,Variant,reverse-splicing fitness
1,C82U A120C A145U C169U U176C,0.0155
2,C82U A120C A145U C169U U176A,0.0169
3,C82U A120C A145U C169U U176G,0.00405
4,C82U A120C A145C C150A U176A,0.00873
5,C82U A120C A145C C150A U176C,0.00962
6,C82U A120C A145C C150A U176G,0.00472
7,C82U A120C A145U C150G U176C,0.0134
8,C82U A120C A145U C150G U176G,0.0036
9,C82U A120C A145U C150G U176A,0.00757
10,C82U A120C A145G C150G C169U,0.0108
11,C82U A120C A145G C150G C169G,0.00749
12,C82U A120C A145G C150G C169A,0.00952
13,C82U A111U A145U C150G C169U,0.00858
14,C82U A120C C150U C169G,0.00713
15,C82U A120C C150U C169A,0.00876
16,C82U A120C A145U C169G U176G,0.00338
17,C82U A120C A145U C169G U176A,0.00692
18,C82U A120C A145U C169G U176C,0.00836
19,C82U A111U C150G C169G U176C,0.00452
20,C82U A111U C150G C169G U176A,0.00711
21,C82U A111U C150G C169G U176G,0.00532

row,Variant,reverse-splicing fitness
1,C82U A120C C150A C169U U176G,0.00498
2,C82U A120C C150A C169U U176C,0.0169
3,C82U A120C C150A C169U U176A,0.0175
4,C82U A120C A145G U176G,0.00954
5,C82U A120C A145G U176A,0.0488
6,C82U A120C A145G U176C,0.0715
7,C82U A120C C150A C169A U176A,0.0169
8,C82U A120C C150A C169A U176G,0.00426
9,C82U A120C C150A C169A U176C,0.0132
10,C82U A120C A145G C150G C169G U176A,0.00987
11,C82U A120C A145G C150G C169G U176C,0.0118
12,C82U A120C A145G C150G C169G U176G,0.00504
13,C82U A111U C150A C169G U176A,0.0193
14,C82U A111U C150A C169G U176G,0.00717
15,C82U A111U C150A C169G U176C,0.0217
16,C82U A120C A145G C150A,0.0315
17,C82U A120C A145G C150U,0.139
18,C82U A120C A145G C150G,0.0255
19,C82U A120C A145U C150A C169U U176G,0.00413
20,C82U A120C A145U C150A C169U U176A,0.0155
21,C82U A120C A145U C150A C169U U176C,0.0164

row,Variant,reverse-splicing fitness
1,C82U A120C A145G C150A C169A U176G,0.00547
2,C82U A120C A145G C150A C169A U176A,0.0175
3,C82U A120C A145G C150A C169A U176C,0.0203
4,C82U A120C A145G C150A C169G U176G,0.00377
5,C82U A120C A145G C150A C169G U176A,0.0157
6,C82U A120C A145G C150A C169G U176C,0.0219
7,C82U A120C A145C C150G C169A U176C,0.0042
8,C82U A120C A145C C150G C169A U176A,0.00866
9,C82U A120C A145C C150G C169A U176G,0.00379
10,C82U A120C A145C C150U C169U U176A,0.0137
11,C82U A120C A145C C150U C169U U176G,0.00398
12,C82U A120C A145C C150U C169U U176C,0.0109
13,C82U A120C A145U C150U C169U U176C,0.0144
14,C82U A120C A145U C150U C169U U176G,0.00397
15,C82U A120C A145U C150U C169U U176A,0.0148
16,C82U A111U C169A U176C,0.02
17,C82U A111U C169A U176A,0.0141
18,C82U A111U C169A U176G,0.00543
19,C82U A120C A145C C150A C169A U176A,0.00849
20,C82U A120C A145C C150A C169A U176G,0.00369
21,C82U A120C A145C C150A C169A U176C,0.00429
